From PMC6902028, “Elucidating the Immune Evasion Mechanisms of Borrelia mayonii, the Causative Agent of Lyme Disease” (Frontiers in Immunology, 2019)

Target: T1, complement regulator factor H (FH) (human, UniProt P08603 19-1231)
T1 construct: source: bought: Complement Technology (purified); native, in non-immune human serum (NHS, NHS-EDTA)
Experiment: ELISA; CspA of B. mayonii MN14-1420 (5 μg/ml) immobilised, increasing concentrations of FH; non-linear regression, one-site specific binding model
Settings: both partners purified

T1 sequence (P08603 19-1231): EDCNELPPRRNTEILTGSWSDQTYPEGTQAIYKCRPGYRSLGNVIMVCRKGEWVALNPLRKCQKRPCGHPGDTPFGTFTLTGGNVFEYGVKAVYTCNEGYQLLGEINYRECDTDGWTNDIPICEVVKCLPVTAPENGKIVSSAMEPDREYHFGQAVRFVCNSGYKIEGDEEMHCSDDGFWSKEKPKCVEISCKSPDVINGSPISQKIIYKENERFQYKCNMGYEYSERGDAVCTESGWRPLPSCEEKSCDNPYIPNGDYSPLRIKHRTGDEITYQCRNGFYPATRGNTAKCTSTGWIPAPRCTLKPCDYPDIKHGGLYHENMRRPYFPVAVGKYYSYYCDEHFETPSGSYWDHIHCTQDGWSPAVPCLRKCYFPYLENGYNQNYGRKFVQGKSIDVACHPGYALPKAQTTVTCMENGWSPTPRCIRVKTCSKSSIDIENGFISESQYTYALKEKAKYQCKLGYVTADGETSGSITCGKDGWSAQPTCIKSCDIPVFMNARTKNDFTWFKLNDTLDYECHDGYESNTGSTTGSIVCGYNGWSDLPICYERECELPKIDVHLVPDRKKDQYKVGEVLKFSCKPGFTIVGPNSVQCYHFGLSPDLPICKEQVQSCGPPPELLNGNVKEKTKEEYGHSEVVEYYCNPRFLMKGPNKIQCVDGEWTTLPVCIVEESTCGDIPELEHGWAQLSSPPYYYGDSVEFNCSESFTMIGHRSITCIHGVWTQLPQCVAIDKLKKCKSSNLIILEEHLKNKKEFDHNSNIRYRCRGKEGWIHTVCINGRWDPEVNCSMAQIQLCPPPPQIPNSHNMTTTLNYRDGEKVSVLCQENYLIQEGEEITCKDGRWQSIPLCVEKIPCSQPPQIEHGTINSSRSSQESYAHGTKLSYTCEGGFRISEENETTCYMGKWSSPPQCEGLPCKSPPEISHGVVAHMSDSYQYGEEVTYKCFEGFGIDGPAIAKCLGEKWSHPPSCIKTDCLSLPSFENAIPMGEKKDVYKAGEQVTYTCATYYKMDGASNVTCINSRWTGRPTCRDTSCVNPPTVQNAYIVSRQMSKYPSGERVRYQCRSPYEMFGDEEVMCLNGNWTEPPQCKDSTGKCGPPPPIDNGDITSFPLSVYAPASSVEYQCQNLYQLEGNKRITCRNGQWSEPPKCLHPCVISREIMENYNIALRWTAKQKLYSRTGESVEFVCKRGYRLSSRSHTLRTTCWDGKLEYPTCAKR

B1: His6-tagged CspA of B. mayonii MN14-1420 (CspA-like protein Bmayo_04535) (natural protein)
chain: TANPIDPKANGNIKPKNNINTKKNTNLEKNTQNFENESENPRSYNQKLLEATIKELKVIGKNLEDQRKEENIQIAKIVDEKFDFLGTFKVGPYDIIEENQQMKMKRIIYSSLNYKKEKIETLKEILETLKNNPEHQYIAGRLANLSWSIQFKIDDNFETIQNGVDNLDQEKSESLLMRAKSNLQLKERFKKTLNETLEAYSQNAQNIKNDIGILAEHVNKYYKYSDSLKPIFY
notes: also called CspA orthologous protein of B. mayonii; CspA ortholog; not shown: His6, N-terminal, kept
For B1, which Kd is on record?
Its Kd is 5.6 ± 0.58 nM.
